Substitutions are numbered along the chain they refer to.
T1: human GIP receptor (human) (UniProt P48546)
T1 sequence (looked up): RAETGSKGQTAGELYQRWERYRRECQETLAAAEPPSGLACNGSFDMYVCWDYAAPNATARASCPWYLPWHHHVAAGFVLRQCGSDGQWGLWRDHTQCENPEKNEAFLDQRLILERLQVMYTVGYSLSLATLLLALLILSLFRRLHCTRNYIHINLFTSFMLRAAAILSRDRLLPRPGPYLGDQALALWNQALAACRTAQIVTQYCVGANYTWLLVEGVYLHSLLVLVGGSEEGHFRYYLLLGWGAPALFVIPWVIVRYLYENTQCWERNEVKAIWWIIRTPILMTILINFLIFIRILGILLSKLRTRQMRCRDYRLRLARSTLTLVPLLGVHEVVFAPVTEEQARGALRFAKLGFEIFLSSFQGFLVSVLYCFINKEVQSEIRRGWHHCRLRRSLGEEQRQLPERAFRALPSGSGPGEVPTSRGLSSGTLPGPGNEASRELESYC

B1: Example 1133 (peptide)
chain: YXQGTFTSDXXQXLDXKAQXQFIQXLIAGGPSSGEPPPSGGGE
modifications: not fully specified; non-natural residues; C18 diacid-γGlu-e on Lys; C-terminal amide; synthetic construct; SITE 2: note = 2-Aminoisobutyric Acid; SITE 10: note = 3-(4-Pyridyl)-L-alanine; SITE 11: note = alpha-methyl-L-serine; SITE 13: note = alpha-methyl-leucine; SITE 16: note = L-ornithine; SITE 17: note = Lysine is chemically modified through conjugation of the epsilon-amino group
B2: Example 1104 (peptide)
chain: YXQGTFTSDXSQXLDXKAQXQFIEXLIEXGPSSGEPPPSGSEE
modifications: not fully specified; non-natural residues; Lys acylated C18 diacid via γGlu; C-term amide; synthetic construct; SITE 2: note = 2-Aminoisobutyric Acid; SITE 10: note = 3-(4-Pyridyl)-L-alanine; SITE 13: note = alpha-methyl-leucine; SITE 16: note = L-ornithine; SITE 17: note = Lysine is chemically modified through conjugation of the epsilon-amino group of the Lysine side chain with D-Glutami
B3: Example 1106 (peptide)
chain: B2 chain with E28A
modifications: not fully specified; Aib, 4Pal, Orn, Me4Pal, αMeY; lipidated Lys; C-terminal amide; synthetic construct; SITE 2: note = 2-Aminoisobutyric Acid; SITE 10: note = 3-(4-Pyridyl)-L-alanine; SITE 13: note = alpha-methyl-leucine; SITE 16: note = L-ornithine; SITE 17: note = Lysine is chemically modified through conjugation of the epsilon-amino group of the Lysine side chain with D-Glutami
B4: Example 1124 (peptide)
chain: B2 chain with X16K, Q21A, S41E
modifications: non-natural residues (Aib, 4Pal, Me4Pal, αMeL); lipidated Lys; C-amide; synthetic construct; SITE 2: note = 2-Aminoisobutyric Acid; SITE 10: note = 3-(4-Pyridyl)-L-alanine; SITE 13: note = alpha-methyl-leucine; SITE 17: note = Lysine is chemically modified through conjugation of the epsilon-amino group of the Lysine side chain with (gamma-Glu)2-CO-(CH2)16-CO2H; SITE 20:
B5: Example 1125 (peptide)
chain: B2 chain with X16K, Q21A
modifications: Aib, 4Pal, Me4Pal, αMeL; lipidated Lys; C-terminal amide; synthetic construct; SITE 2: note = 2-Aminoisobutyric Acid; SITE 10: note = 3-(4-Pyridyl)-L-alanine; SITE 13: note = alpha-methyl-leucine; SITE 17: note = Lysine is chemically modified through conjugation of the epsilon-amino group of the Lysine side chain with (gamma-Glu)2-CO-(CH2)16-CO2H; SITE 20:
B6: Example 1105 (peptide)
chain: B2 chain with Q21A, E28A
modifications: not fully specified; non-natural residues; Lys acylated γGlu-C18 diacid; C-terminal amide; synthetic construct; SITE 2: note = 2-Aminoisobutyric Acid; SITE 10: note = 3-(4-Pyridyl)-L-alanine; SITE 13: note = alpha-methyl-leucine; SITE 16: note = L-ornithine; SITE 17: note = Lysine is chemically modified through conjugation of the epsilon-amino group of the Lysine side chain with D-Glutami
B7: Example 1128 (peptide)
chain: B1 chain with X11S, G29X
modifications: Aib, 4Pal, αMeL, Orn, Me4Pal, αMeY; acylated lysine; amide; synthetic construct; SITE 2: note = 2-Aminoisobutyric Acid; SITE 10: note = 3-(4-Pyridyl)-L-alanine; SITE 13: note = alpha-methyl-leucine; SITE 16: note = L-ornithine; SITE 17: note = Lysine is chemically modified through conjugation of the epsilon-amino group of the Lysine side chain with D-Glutami
B8: Example 1137 (peptide)
chain: B1 chain with A28E, G29X, E35A
modifications: not fully specified; non-natural residues; γ-Glu-C18 diacid acyl; C-terminal amide; synthetic construct; SITE 2: note = 2-Aminoisobutyric Acid; SITE 10: note = 3-(4-Pyridyl)-L-alanine; SITE 11: note = alpha-methyl-L-serine; SITE 13: note = alpha-methyl-leucine; SITE 16: note = L-ornithine; SITE 17: note = Lysine is chemically modified through conjugation of the epsilon-amino group
B9: Example 1131 (peptide)
chain: B2 chain with Q21A, E24Q, S41G, E42G
modifications: not fully specified; non-natural residues, C18 diacid acylation, C-terminal amide; synthetic construct; SITE 2: note = 2-Aminoisobutyric Acid; SITE 10: note = 3-(4-Pyridyl)-L-alanine; SITE 13: note = alpha-methyl-leucine; SITE 16: note = L-ornithine; SITE 17: note = Lysine is chemically modified through conjugation of the epsilon-amino group of the Lysine side chain with D-Glutami
B10: Example 1129 (peptide)
chain: B2 chain with E24Q, S41G, E42G
modifications: non-natural residues; lysine acylated with C18 diacid; C-terminal amide; synthetic construct; SITE 2: note = 2-Aminoisobutyric Acid; SITE 10: note = 3-(4-Pyridyl)-L-alanine; SITE 13: note = alpha-methyl-leucine; SITE 16: note = L-ornithine; SITE 17: note = Lysine is chemically modified through conjugation of the epsilon-amino group of the Lysine side chain with D-Glutami
B11: Example 1130 (peptide)
chain: B1 chain with X11S, Q21A, G29X
modifications: Lys acylated γGlu-C18 diacid; non-natural residues; C-amide; synthetic construct; SITE 2: note = 2-Aminoisobutyric Acid; SITE 10: note = 3-(4-Pyridyl)-L-alanine; SITE 13: note = alpha-methyl-leucine; SITE 16: note = L-ornithine; SITE 17: note = Lysine is chemically modified through conjugation of the epsilon-amino group of the Lysine side chain with D-Glutami
B12: Example 106 (peptide)
chain: YXQGTFTSDFSXXLDKKAQXAFIEYLLAGGTSSGEPPPSGE
modifications: synthetic construct; SITE 2: note = 2-Aminoisobutyric Acid; SITE 12: note = L-ornithine; SITE 13: note = alpha-methyl-leucine; SITE 17: note = Lysine is chemically modified through conjugation of the epsilon-amino group of the Lysine side chain with (2-[2-(2-Amino-ethoxy)-ethoxy]-acetyl)-(gamma-Glu)
B13: Example 1123 (peptide)
chain: YXQGTFTSDXSQXLDKKAQXAFIEXLIEXGPSSGEPPPSGE
modifications: Aib, 4Pal, αMeL, Me4Pal; acylated Lys; C-terminal amide; synthetic construct; SITE 2: note = 2-Aminoisobutyric Acid; SITE 10: note = 3-(4-Pyridyl)-L-alanine; SITE 13: note = alpha-methyl-leucine; SITE 17: note = Lysine is chemically modified through conjugation of the epsilon-amino group of the Lysine side chain with (gamma-Glu)2-CO-(CH2)16-CO2H; SITE 20:
B14: Example 1143 (peptide)
chain: YXQGTXTSDXXIXLDXKAQXEFIEXLIEGGPSSGEPPPTGE
modifications: Non-natural residues; K acylated AEEA-γGlu-C18 diacid; C-terminal amide; synthetic construct; SITE 2: note = 2-Aminoisobutyric Acid; SITE 6: note = alpha-methyl-2-fluoro-L-phenylalanine; SITE 10: note = 3-(4-Pyridyl)-L-alanine; SITE 11: note = alpha-methyl-L-serine; SITE 13: note = alpha-methyl-leucine; SITE 16: note = L-ornithine; SITE 17: note = Lysine is chemically mo

The binders below were run against hGLP-1R (Homo sapiens, UniProt P43220) (assay: cell-based or functional assay).
Sequence of hGLP-1R (P43220 24-463): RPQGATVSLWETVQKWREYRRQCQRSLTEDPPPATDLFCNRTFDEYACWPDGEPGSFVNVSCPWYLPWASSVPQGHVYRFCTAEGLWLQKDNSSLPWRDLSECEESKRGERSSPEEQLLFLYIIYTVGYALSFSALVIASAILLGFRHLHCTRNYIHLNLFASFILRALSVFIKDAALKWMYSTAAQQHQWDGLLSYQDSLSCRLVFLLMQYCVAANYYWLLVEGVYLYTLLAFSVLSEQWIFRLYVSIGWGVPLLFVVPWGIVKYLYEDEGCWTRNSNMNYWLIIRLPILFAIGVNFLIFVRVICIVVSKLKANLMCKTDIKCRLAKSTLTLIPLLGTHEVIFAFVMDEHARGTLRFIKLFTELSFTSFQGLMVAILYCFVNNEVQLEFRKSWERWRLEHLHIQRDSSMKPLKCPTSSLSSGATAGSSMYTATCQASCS
B1 showed a Relative cAMP EC50 of 0.768 nM and a cAMP Rel EC50 (1% HSA) of 47.8 nM.
For B2, the Relative cAMP EC50 was 1.7 nM and the cAMP Rel EC50 (1% HSA) was 272 nM.
B3 was tested, and the Relative cAMP EC50 was 0.87 nM and the cAMP Rel EC50 (1% HSA) was 119 nM.
B4 was tested, and the Relative cAMP EC50 was 10.1 nM and the cAMP Rel EC50 (1% HSA) was 304 nM.
Work on B5 yielded a Relative cAMP EC50 of 8.26 nM and a cAMP Rel EC50 (1% HSA) of 243 nM.
Work on B6 yielded a Relative cAMP EC50 of 0.875 nM and a cAMP Rel EC50 (1% HSA) of 92.5 nM.
With B7 the Relative cAMP EC50 was 0.486 nM and the cAMP Rel EC50 (1% HSA) was 52.8 nM.
B8 gave a Relative cAMP EC50 of 0.582 nM and a cAMP Rel EC50 (1% HSA) of 36.2 nM.
Work on B9 yielded a Relative cAMP EC50 of 0.483 nM and a cAMP Rel EC50 (1% HSA) of 63.7 nM.
Binder B10 has a Relative cAMP EC50 of 0.501 nM and a cAMP Rel EC50 (1% HSA) of 56.6 nM.
B11 gave a Relative cAMP EC50 of 0.641 nM and a cAMP Rel EC50 (1% HSA) of 44.5 nM.
B12 gave a Relative cAMP EC50 of 3.94 nM and a cAMP Rel EC50, nM (in the presence of 1% HSA) of 977 nM.
B13 showed a Relative cAMP EC50 of 4.47 nM and a cAMP Rel EC50 (1% HSA) of 191 nM.
B14 was tested, and the Relative cAMP EC50 was 0.381 nM and the cAMP Rel EC50 (1% HSA) was 49.6 nM.

Each binder was assayed against human glucagon receptor (human) (UniProt P47871) (assay: cell-based or functional assay).
Sequence of human glucagon receptor (human) (P47871 26-477): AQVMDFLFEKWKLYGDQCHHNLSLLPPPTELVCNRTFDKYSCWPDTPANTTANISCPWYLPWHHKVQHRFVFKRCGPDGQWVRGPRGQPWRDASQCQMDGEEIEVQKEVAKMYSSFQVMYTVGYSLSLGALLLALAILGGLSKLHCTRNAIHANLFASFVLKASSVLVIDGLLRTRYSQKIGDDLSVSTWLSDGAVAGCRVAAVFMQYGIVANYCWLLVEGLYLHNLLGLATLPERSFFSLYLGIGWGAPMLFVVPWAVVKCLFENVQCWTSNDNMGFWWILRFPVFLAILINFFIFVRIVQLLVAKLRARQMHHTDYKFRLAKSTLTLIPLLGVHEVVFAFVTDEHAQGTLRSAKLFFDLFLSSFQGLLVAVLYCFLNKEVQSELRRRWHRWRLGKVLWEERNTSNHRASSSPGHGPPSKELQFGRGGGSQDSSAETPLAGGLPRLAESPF
B1 gave a Relative cAMP EC50 of 2.95 nM and a cAMP Rel EC50 (1% HSA) of 216 nM.
B2 was tested, and the Relative cAMP EC50 was 11.1 nM and the cAMP Rel EC50 (1% HSA) was 1470 nM.
Work on B3 yielded a Relative cAMP EC50 of 7.71 nM and a cAMP Rel EC50 (1% HSA) of 1030 nM.
In the case of B4, the Relative cAMP EC50 is reported as 6.97 nM and the cAMP Rel EC50 (1% HSA) is reported as 400 nM.
In the case of B5, the Relative cAMP EC50 is reported as 5.83 nM and the cAMP Rel EC50 (1% HSA) is reported as 264 nM.
In the case of B6, the Relative cAMP EC50 is reported as 10.7 nM and the cAMP Rel EC50 (1% HSA) is reported as 1260 nM.
Binder B7 has a Relative cAMP EC50 of 9.88 nM and a cAMP Rel EC50 (1% HSA) of 869 nM.
In the case of B8, the Relative cAMP EC50 is reported as 14.2 nM and the cAMP Rel EC50 (1% HSA) is reported as 663 nM.
With B9 the Relative cAMP EC50 was 8.42 nM and the cAMP Rel EC50 (1% HSA) was 1140 nM.
Work on B10 yielded a Relative cAMP EC50 of 6.11 nM and a cAMP Rel EC50 (1% HSA) of 796 nM.
B11 was tested, and the Relative cAMP EC50 was 13.3 nM and the cAMP Rel EC50 (1% HSA) was 1240 nM.
In the case of B12, the Relative cAMP EC50 is reported as 6.26 nM and the cAMP Rel EC50, nM (in the presence of 1% HSA) is reported as 2000 nM.
Binder B13 has a Relative cAMP EC50 of 5.53 nM and a cAMP Rel EC50 (1% HSA) of 441 nM.
Binder B14 has a Relative cAMP EC50 of 1.42 nM and a cAMP Rel EC50 (1% HSA) of 182 nM.

The binders below were run against T1, human GIP receptor (human) (assay: cell-based or functional assay).
B1 gave a Relative cAMP EC50 of 0.0719 nM and a cAMP Rel EC50 (1% HSA) of 4.24 nM.
For B2, the Relative cAMP EC50 was 0.09 nM and the cAMP Rel EC50 (1% HSA) was 13.9 nM.
For B3, the Relative cAMP EC50 was 0.0312 nM and the cAMP Rel EC50 (1% HSA) was 4.23 nM.
For B4, the Relative cAMP EC50 was 0.187 nM and the cAMP Rel EC50 (1% HSA) was 12 nM.
B5 gave a Relative cAMP EC50 of 0.173 nM and a cAMP Rel EC50 (1% HSA) of 3.95 nM.
With B6 the Relative cAMP EC50 was 0.0427 nM and the cAMP Rel EC50 (1% HSA) was 5.59 nM.
Binder B7 has a Relative cAMP EC50 of 0.0378 nM and a cAMP Rel EC50 (1% HSA) of 3.18 nM.
B8 was tested, and the Relative cAMP EC50 was 0.0334 nM and the cAMP Rel EC50 (1% HSA) was 2.05 nM.
B9 was tested, and the Relative cAMP EC50 was 0.0472 nM and the cAMP Rel EC50 (1% HSA) was 5.47 nM.
Binder B10 has a Relative cAMP EC50 of 0.048 nM and a cAMP Rel EC50 (1% HSA) of 4.16 nM.
In the case of B11, the Relative cAMP EC50 is reported as 0.0441 nM and the cAMP Rel EC50 (1% HSA) is reported as 3.73 nM.
Work on B12 yielded a Relative cAMP EC50 of 0.345 nM and a cAMP Rel EC50, nM (in the presence of 1% HSA) of 91 nM.
With B13 the Relative cAMP EC50 was 0.101 nM and the cAMP Rel EC50 (1% HSA) was 3.89 nM.
Work on B14 yielded a Relative cAMP EC50 of 0.0087 nM and a cAMP Rel EC50 (1% HSA) of 0.751 nM.

From US20240270821A1, “GIP/GLP1/GCG TRI-RECEPTOR AGONISTS AND USES THEREOF” (priority 2023, published 2024)
